Molecular target: autotaxin (ENPP2/NPP2) (Homo sapiens) (UniProt Q13822)
Experiment: inhibition
[1] = NPP2 assay, no inhibition up to 1.0 uM

Sequence | IC50 [1] | IC50 (LysoPLD assay, table says 40N only (which pool not stated))
ACACTCACAGGCGCTGGNNNNNNNNNNNNNNNNNNNNNNNNNNNNNNCGTGCATGGCCGCTAGT [DNA pool (SEQ 17)] | > 1000 nM | 
GTGGTCTAGCTGTACTCNNNNNNNNNNNNNNNNNNNNNNNNNNNNNNNNNNNNNNNNCCACAGTCAACGAGCTA [40N DNA pool (SEQ 1)] | > 1000 nM | > 1000 nM

— patent publication US20170137818
